Data: paper PMC9482650, “Quantitative fragmentomics allow affinity mapping of interactomes” (Nature Communications, 2022)

T1: NHERF3_1, Q5T2W1
T1 sequence (Q5T2W1 4-100, limits assumed, looked up): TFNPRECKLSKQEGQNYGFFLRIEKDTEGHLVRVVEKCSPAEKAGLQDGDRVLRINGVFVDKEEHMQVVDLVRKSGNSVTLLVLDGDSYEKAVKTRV

T2: GRIP1_2, Q9Y3R0
T2 sequence (Q9Y3R0 145-248, limits assumed, looked up): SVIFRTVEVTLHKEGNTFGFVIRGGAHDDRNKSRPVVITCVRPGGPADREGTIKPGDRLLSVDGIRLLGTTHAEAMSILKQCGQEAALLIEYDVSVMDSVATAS

T3: LIN7A, O14910
T3 sequence (O14910 103-200, limits assumed, looked up): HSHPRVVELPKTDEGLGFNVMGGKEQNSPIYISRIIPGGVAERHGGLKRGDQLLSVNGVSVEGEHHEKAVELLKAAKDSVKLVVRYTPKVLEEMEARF

T4: GRIP1_7, Q9Y3R0
T4 sequence (Q9Y3R0 999-1096, limits assumed, looked up): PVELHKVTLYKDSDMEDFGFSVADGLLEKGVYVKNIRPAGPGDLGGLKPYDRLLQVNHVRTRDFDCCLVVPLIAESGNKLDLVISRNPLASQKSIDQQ

T5: RADIL, Q96JH8
T5 sequence (Q96JH8 971-1071, limits assumed, looked up): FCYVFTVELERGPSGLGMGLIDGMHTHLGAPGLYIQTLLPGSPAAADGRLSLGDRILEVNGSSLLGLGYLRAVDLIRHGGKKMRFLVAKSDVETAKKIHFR

T6: PCLO, Q9Y6V0
T6 sequence (Q9Y6V0 4491-4600, limits assumed, looked up): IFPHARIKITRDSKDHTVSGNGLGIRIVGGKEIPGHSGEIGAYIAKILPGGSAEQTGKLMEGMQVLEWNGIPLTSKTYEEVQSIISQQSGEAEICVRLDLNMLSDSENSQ

T7: APBA1_1, Q02410
T7 sequence (Q02410 651-752, limits assumed, looked up): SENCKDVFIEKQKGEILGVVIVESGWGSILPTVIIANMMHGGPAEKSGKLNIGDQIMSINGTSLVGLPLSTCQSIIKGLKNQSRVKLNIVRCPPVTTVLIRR

T8: MPDZ_10, O75970
T8 sequence (O75970 1624-1722, limits assumed, looked up): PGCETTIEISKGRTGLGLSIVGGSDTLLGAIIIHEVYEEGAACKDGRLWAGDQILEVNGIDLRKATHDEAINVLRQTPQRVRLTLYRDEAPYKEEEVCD

T9: GRIP1_3, Q9Y3R0
T9 sequence (Q9Y3R0 247-346, limits assumed, looked up): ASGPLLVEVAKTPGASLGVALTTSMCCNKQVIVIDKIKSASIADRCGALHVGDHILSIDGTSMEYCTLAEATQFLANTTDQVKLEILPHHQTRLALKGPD

T10: TIAM2, Q8IVF5
T10 sequence (Q8IVF5 885-986, limits assumed, looked up): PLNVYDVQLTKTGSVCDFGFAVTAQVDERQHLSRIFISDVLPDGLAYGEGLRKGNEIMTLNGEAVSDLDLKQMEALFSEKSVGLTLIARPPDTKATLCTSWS

B1: CRIPT, Q9P021 (peptide)
chain: DTKNYKQTSV
B2: MYPN, Q86TC9 (peptide)
chain: SRSVVESDEL

Molecular target: GORASP2, Q9H8Y8
Experiment: holdup assay
Parameters: key: below the threshold = too weak to quantify, mostly under pKd 3.1 to 4
Settings: plain residues with an end cap or a label only (N-terminal biotin on a linker: ado-ado)

Row | Binder | pKd
1 | B1 | below the threshold
2 | B2 | below the threshold

Molecular target: NHERF4_4, Q86UT5
Experiment: holdup assay
Parameters: key: below the threshold = too weak to quantify, mostly under pKd 3.1 to 4
Settings: plain residues with an end cap or a label only (N-terminal biotin on a linker: ado-ado)

Sequence of NHERF4_4, Q86UT5 (Q86UT5 464-550): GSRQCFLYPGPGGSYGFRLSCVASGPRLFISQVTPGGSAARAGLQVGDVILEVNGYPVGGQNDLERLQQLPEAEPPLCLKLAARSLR

Row | Binder | pKd
3 | B1 | below the threshold
4 | B2 | below the threshold

Molecular target: T1, NHERF3_1, Q5T2W1
Experiment: holdup assay
Parameters: key: below the threshold = too weak to quantify, mostly under pKd 3.1 to 4
Settings: plain residues with an end cap or a label only (N-terminal biotin on a linker: ado-ado)

Row | Binder | pKd
5 | B1 | 4.59
6 | B2 | 5.44

Molecular target: T2, GRIP1_2, Q9Y3R0
Experiment: holdup assay
Parameters: key: below the threshold = too weak to quantify, mostly under pKd 3.1 to 4
Settings: plain residues with an end cap or a label only (N-terminal biotin on a linker: ado-ado)

Row | Binder | pKd
7 | B1 | below the threshold
8 | B2 | below the threshold

Molecular target: T3, LIN7A, O14910
Experiment: holdup assay
Parameters: key: below the threshold = too weak to quantify, mostly under pKd 3.1 to 4
Settings: plain residues with an end cap or a label only (N-terminal biotin on a linker: ado-ado)

Row | Binder | pKd
9 | B1 | 3.56
10 | B2 | below the threshold

Molecular target: T4, GRIP1_7, Q9Y3R0
Experiment: holdup assay
Parameters: key: below the threshold = too weak to quantify, mostly under pKd 3.1 to 4
Settings: plain residues with an end cap or a label only (N-terminal biotin on a linker: ado-ado)

Row | Binder | pKd
11 | B1 | below the threshold
12 | B2 | below the threshold

Molecular target: T5, RADIL, Q96JH8
Experiment: holdup assay
Parameters: key: below the threshold = too weak to quantify, mostly under pKd 3.1 to 4
Settings: plain residues with an end cap or a label only (N-terminal biotin on a linker: ado-ado)

Row | Binder | pKd
13 | B1 | below the threshold
14 | B2 | below the threshold

Molecular target: GRID2IP_1, A4D2P6
Experiment: holdup assay
Parameters: key: below the threshold = too weak to quantify, mostly under pKd 3.1 to 4
Settings: plain residues with an end cap or a label only (N-terminal biotin on a linker: ado-ado)

Sequence of GRID2IP_1, A4D2P6 (A4D2P6 1-87): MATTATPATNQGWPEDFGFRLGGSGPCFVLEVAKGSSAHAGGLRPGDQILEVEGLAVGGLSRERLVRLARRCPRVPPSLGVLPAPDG

Row | Binder | pKd
15 | B1 | below the threshold
16 | B2 | below the threshold

Molecular target: Inadl_1, Q8NI35
Experiment: holdup assay
Parameters: key: below the threshold = too weak to quantify, mostly under pKd 3.1 to 4
Settings: plain residues with an end cap or a label only (N-terminal biotin on a linker: ado-ado)

Sequence of Inadl_1, Q8NI35 (Q8NI35 113-229): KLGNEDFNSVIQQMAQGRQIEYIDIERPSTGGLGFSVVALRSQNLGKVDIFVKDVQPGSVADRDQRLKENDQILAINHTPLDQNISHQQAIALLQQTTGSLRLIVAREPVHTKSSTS

Row | Binder | pKd
17 | B1 | below the threshold
18 | B2 | below the threshold

Molecular target: GRIP2_7, Q9C0E4
Experiment: holdup assay
Parameters: key: below the threshold = too weak to quantify, mostly under pKd 3.1 to 4
Settings: plain residues with an end cap or a label only (N-terminal biotin on a linker: ado-ado)

Sequence of GRIP2_7, Q9C0E4 (Q9C0E4 934-1023): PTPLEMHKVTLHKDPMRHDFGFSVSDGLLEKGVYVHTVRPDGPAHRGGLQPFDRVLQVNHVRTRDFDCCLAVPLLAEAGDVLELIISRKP

Row | Binder | pKd
19 | B1 | below the threshold
20 | B2 | below the threshold

Molecular target: T6, PCLO, Q9Y6V0
Experiment: holdup assay
Parameters: key: below the threshold = too weak to quantify, mostly under pKd 3.1 to 4
Settings: plain residues with an end cap or a label only (N-terminal biotin on a linker: ado-ado)

Row | Binder | pKd
21 | B1 | below the threshold
22 | B2 | below the threshold

Molecular target: LDB3, O75112
Experiment: holdup assay
Parameters: key: below the threshold = too weak to quantify, mostly under pKd 3.1 to 4
Settings: plain residues with an end cap or a label only (N-terminal biotin on a linker: ado-ado)

Sequence of LDB3, O75112 (O75112 1-94): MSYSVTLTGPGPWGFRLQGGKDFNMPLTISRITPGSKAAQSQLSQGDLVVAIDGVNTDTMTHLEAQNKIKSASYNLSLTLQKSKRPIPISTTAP

Row | Binder | pKd
23 | B1 | below the threshold
24 | B2 | 5.06

Molecular target: TJP1_2, Q07157
Experiment: holdup assay
Parameters: key: below the threshold = too weak to quantify, mostly under pKd 3.1 to 4
Settings: plain residues with an end cap or a label only (N-terminal biotin on a linker: ado-ado)

Sequence of TJP1_2, Q07157 (Q07157 181-274): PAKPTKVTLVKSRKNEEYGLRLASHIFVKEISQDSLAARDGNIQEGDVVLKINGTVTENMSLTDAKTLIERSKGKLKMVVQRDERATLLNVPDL

Row | Binder | pKd
25 | B1 | below the threshold
26 | B2 | 3.51

Molecular target: T7, APBA1_1, Q02410
Experiment: holdup assay
Parameters: key: below the threshold = too weak to quantify, mostly under pKd 3.1 to 4
Settings: plain residues with an end cap or a label only (N-terminal biotin on a linker: ado-ado)

Row | Binder | pKd
27 | B1 | below the threshold
28 | B2 | below the threshold

Molecular target: TJP1_3, Q07157
Experiment: holdup assay
Parameters: key: below the threshold = too weak to quantify, mostly under pKd 3.1 to 4
Settings: plain residues with an end cap or a label only (N-terminal biotin on a linker: ado-ado)

Sequence of TJP1_3, Q07157 (Q07157 416-512): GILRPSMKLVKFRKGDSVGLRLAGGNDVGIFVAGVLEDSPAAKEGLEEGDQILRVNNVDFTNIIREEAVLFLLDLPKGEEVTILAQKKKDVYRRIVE

Row | Binder | pKd
29 | B1 | below the threshold
30 | B2 | below the threshold

Molecular target: MAGI2_3, Q86UL8
Experiment: holdup assay
Parameters: key: below the threshold = too weak to quantify, mostly under pKd 3.1 to 4
Settings: plain residues with an end cap or a label only (N-terminal biotin on a linker: ado-ado)

Sequence of MAGI2_3, Q86UL8 (Q86UL8 600-682): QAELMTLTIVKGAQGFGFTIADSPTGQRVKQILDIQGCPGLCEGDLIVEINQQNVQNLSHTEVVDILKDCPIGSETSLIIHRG

Row | Binder | pKd
31 | B1 | 3.94
32 | B2 | below the threshold

Molecular target: DLG1_1, Q12959
Experiment: holdup assay
Parameters: key: below the threshold = too weak to quantify, mostly under pKd 3.1 to 4
Settings: plain residues with an end cap or a label only (N-terminal biotin on a linker: ado-ado)

Row | Binder | pKd
33 | B1 | 4.35
34 | B2 | below the threshold

Molecular target: DLG1_3, Q12959
Experiment: holdup assay
Parameters: key: below the threshold = too weak to quantify, mostly under pKd 3.1 to 4
Settings: plain residues with an end cap or a label only (N-terminal biotin on a linker: ado-ado)

Row | Binder | pKd
35 | B1 | 5.26
36 | B2 | below the threshold

Molecular target: GOPC, Q9HD26
Experiment: holdup assay
Parameters: key: below the threshold = too weak to quantify, mostly under pKd 3.1 to 4
Settings: plain residues with an end cap or a label only (N-terminal biotin on a linker: ado-ado)

Row | Binder | pKd
37 | B1 | 3.87
38 | B2 | below the threshold

Molecular target: DLG2_3, Q15700
Experiment: holdup assay
Parameters: key: below the threshold = too weak to quantify, mostly under pKd 3.1 to 4
Settings: plain residues with an end cap or a label only (N-terminal biotin on a linker: ado-ado)

Row | Binder | pKd
39 | B1 | 5.29
40 | B2 | below the threshold

Molecular target: SCRIB_3, Q14160
Experiment: holdup assay
Parameters: key: below the threshold = too weak to quantify, mostly under pKd 3.1 to 4
Settings: plain residues with an end cap or a label only (N-terminal biotin on a linker: ado-ado)

Sequence of SCRIB_3, Q14160 (Q14160 999-1103): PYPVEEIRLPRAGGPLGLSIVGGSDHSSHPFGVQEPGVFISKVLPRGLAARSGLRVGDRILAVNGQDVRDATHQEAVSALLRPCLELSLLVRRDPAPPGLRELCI

Row | Binder | pKd
41 | B1 | 4.98
42 | B2 | 3.51

Molecular target: AHNAK1, Q09666
Experiment: holdup assay
Parameters: key: below the threshold = too weak to quantify, mostly under pKd 3.1 to 4
Settings: plain residues with an end cap or a label only (N-terminal biotin on a linker: ado-ado)

Sequence of AHNAK1, Q09666 (Q09666 4-100): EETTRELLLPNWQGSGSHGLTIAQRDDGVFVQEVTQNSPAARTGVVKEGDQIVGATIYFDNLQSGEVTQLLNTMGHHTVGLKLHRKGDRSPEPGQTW

Row | Binder | pKd
43 | B1 | below the threshold
44 | B2 | below the threshold

Molecular target: DLG2_2, Q15700
Experiment: holdup assay
Parameters: key: below the threshold = too weak to quantify, mostly under pKd 3.1 to 4
Settings: plain residues with an end cap or a label only (N-terminal biotin on a linker: ado-ado)

Row | Binder | pKd
45 | B1 | 4.71
46 | B2 | below the threshold

Molecular target: T8, MPDZ_10, O75970
Experiment: holdup assay
Parameters: key: below the threshold = too weak to quantify, mostly under pKd 3.1 to 4
Settings: plain residues with an end cap or a label only (N-terminal biotin on a linker: ado-ado)

Row | Binder | pKd
47 | B1 | 3.98
48 | B2 | below the threshold

Molecular target: GIPC2, Q8TF65
Experiment: holdup assay
Parameters: key: below the threshold = too weak to quantify, mostly under pKd 3.1 to 4
Settings: plain residues with an end cap or a label only (N-terminal biotin on a linker: ado-ado)

Sequence of GIPC2, Q8TF65 (Q8TF65 112-203): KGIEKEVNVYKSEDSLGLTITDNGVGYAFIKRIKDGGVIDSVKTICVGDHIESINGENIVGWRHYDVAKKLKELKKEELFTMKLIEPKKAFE

Row | Binder | pKd
49 | B1 | below the threshold
50 | B2 | below the threshold

Molecular target: T9, GRIP1_3, Q9Y3R0
Experiment: holdup assay
Parameters: key: below the threshold = too weak to quantify, mostly under pKd 3.1 to 4
Settings: plain residues with an end cap or a label only (N-terminal biotin on a linker: ado-ado)

Row | Binder | pKd
51 | B1 | below the threshold
52 | B2 | below the threshold

Molecular target: MAGI2_2, Q86UL8
Experiment: holdup assay
Parameters: key: below the threshold = too weak to quantify, mostly under pKd 3.1 to 4
Settings: plain residues with an end cap or a label only (N-terminal biotin on a linker: ado-ado)

Sequence of MAGI2_2, Q86UL8 (Q86UL8 410-522): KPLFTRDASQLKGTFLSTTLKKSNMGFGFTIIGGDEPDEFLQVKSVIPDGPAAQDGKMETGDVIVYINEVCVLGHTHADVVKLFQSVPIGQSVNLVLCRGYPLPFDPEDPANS

Row | Binder | pKd
53 | B1 | 4.55
54 | B2 | below the threshold

Molecular target: T10, TIAM2, Q8IVF5
Experiment: holdup assay
Parameters: key: below the threshold = too weak to quantify, mostly under pKd 3.1 to 4
Settings: plain residues with an end cap or a label only (N-terminal biotin on a linker: ado-ado)

Row | Binder | pKd
55 | B1 | below the threshold
56 | B2 | below the threshold
